Test results from paper PMC5358978, “Nuclear export receptor CRM1 recognizes diverse conformations in nuclear export signals” (eLife, 2017).

Key:
Settings in all cases: both partners purified
[1] = target: T1, human CRM1 (HsCRM1), wild type (human, UniProt O14980 1-1071); test: differential bleaching; competition titration of MBP-NES to FITC-PKI NES and CRM1 with excess RanGTP; triplicate; fitted with a set of direct titrations
T1 construct: human CRM1 / Exportin-1 (XPO1); Always used together with RanGTP (ScRanGTP in the pull-downs); also called Exportin-1; XPO1

[2] = target: engineered ScCRM1 (residues 1-1058, △377-413, 537DLTVK541 to GLCEQ, V441D) (S. cerevisiae, UniProt P30822 1-1058, △377–413 | 537DLTVK541 to GLCEQ | V441D); test: crystal structure; NES peptide bound to the engineered ScCRM1-RanGppNHp-Yrb1p complex; crystallised as in Fung et al., 2015
[3] = target: engineered ScCRM1(K579A) mutant (S. cerevisiae, UniProt P30822 1-1058, △377–413 | 537DLTVK541 to GLCEQ | V441D | K579A); test: as above
[4] = target: T1, human CRM1 (HsCRM1), wild type; test: pull-down; ~10 µg immobilized GST-NES, 2.5 µM HsCRM1 and 7.5 µM ScRanGTP in 200 µL
[5] = target: T2, human CRM1 mutant HsCRM1(K568A) (human, UniProt O14980 1-1071, K568A); test: pull-down; ~5 µg immobilized GST-NESs, 7.5 µM ScRanGTP and 2.5 µM HsCRM1 (wild type or mutant) in 200 µL
T2 construct: human CRM1 / Exportin-1 (XPO1) with K568A; Used together with RanGTP

[6] = target: T1, human CRM1 (HsCRM1), wild type; test: pull-down; ~5 µg immobilized GST-NESs, 500 nM HsCRM1 (wild type or mutant) and 1.5 µM ScRanGTP in 1 mL
[7] = target: T2, human CRM1 mutant HsCRM1(K568A); test: as above
[8] = target: T3, human CRM1 mutant HsCRM1(K568M) (human, UniProt O14980 1-1071, K568M); test: as above
T3 construct: human CRM1 / Exportin-1 (XPO1) with K568M; Used together with RanGTP

[9] = target: T3, human CRM1 mutant HsCRM1(K568M); test: pull-down; ~5 µg immobilized GST-NESs, 7.5 µM ScRanGTP and 2.5 µM HsCRM1 (wild type or mutant) in 200 µL

T1 sequence (O14980 whole entry): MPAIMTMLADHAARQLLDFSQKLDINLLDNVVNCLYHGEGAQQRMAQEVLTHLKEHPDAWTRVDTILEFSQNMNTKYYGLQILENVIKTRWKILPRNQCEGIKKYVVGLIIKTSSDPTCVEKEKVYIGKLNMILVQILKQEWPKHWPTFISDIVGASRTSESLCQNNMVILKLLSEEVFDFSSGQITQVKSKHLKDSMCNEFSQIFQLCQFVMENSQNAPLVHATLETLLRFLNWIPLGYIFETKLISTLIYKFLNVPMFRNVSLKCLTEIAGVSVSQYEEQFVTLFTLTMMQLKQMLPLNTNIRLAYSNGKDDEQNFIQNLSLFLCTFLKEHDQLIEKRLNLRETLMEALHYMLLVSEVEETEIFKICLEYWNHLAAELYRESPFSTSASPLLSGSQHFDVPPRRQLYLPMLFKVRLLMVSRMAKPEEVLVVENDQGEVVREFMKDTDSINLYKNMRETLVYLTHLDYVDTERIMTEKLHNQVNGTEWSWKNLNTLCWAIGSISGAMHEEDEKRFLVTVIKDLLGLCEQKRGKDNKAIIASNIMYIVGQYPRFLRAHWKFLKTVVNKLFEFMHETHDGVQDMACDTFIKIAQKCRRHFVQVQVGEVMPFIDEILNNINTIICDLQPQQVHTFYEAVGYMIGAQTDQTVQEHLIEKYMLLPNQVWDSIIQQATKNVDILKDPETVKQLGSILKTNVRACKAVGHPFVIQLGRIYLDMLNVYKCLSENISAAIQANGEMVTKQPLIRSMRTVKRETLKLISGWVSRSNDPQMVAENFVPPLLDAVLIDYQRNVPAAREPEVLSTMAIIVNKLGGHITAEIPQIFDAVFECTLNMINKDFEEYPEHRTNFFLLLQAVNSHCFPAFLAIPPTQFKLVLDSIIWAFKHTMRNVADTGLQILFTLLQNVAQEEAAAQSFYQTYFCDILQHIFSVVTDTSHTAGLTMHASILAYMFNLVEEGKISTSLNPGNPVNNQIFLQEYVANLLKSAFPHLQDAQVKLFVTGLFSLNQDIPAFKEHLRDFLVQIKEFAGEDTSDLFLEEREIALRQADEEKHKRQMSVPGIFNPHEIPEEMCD
T2 sequence (O14980 whole entry K568A): as the sequence (O14980 whole entry) above, with K568A counted along it
T3 sequence (O14980 whole entry K568M): as the sequence (O14980 whole entry) above, with K568M counted along it

B1: MBP-CDC7 NES (peptide)
chain: QDLRKLCERLRGMDSSTP
notes: cell division cycle 7-related protein kinase (CDC7), residues 456-473; also called MBP-NES; not shown: MBP, N-terminal, kept
**Q.** Does B1 bind [1]?
**A.** binds

B2: CDC7 NES peptide (crystallised) (peptide)
peptide: QDLRKLCERLRGMDSSTP
notes: cell division cycle 7-related protein kinase (CDC7), residues 456-473; Extra N-terminal residues such as those printed for mDia2 (GGSY) and FMRP-1b (GGS) may be present; source: expressed and purified as described in Fung et al., 2015
**Q.** Does B2 bind [2]?
**A.** binds

B3: MBP-mDia2 NES (wild type) (peptide)
chain: SVPEVEALLARLRAL
notes: mouse diaphanous homolog 3 (mDia2), residues 1179-1193; also called wild type mDia2^NES; not shown: MBP, N-terminal, kept
**Q.** B3 was tested. Which Kd [1] did it give?
**A.** 1.7 µM

B4: MBP-SMAD4 NES (peptide)
chain: YERVVSPGIDLSGLTLQ
notes: Mothers against decapentaplegic homolog 4 (SMAD4), residues 133-149; also called MBP-NES; not shown: MBP, N-terminal, kept
**Q.** Does B4 bind [1]?
**A.** binds

B5: Hxk2 peptide (crystallised, false positive NES) (peptide)
peptide: DVPKELMQQIENFEKIFTV
notes: Hexokinase-2 (Hxk2), residues 18-36; Extra N-terminal residues such as those printed for mDia2 (GGSY) and FMRP-1b (GGS) may be present; source: expressed and purified as described in Fung et al., 2015
**Q.** Does B5 bind [3]?
**A.** binds

B6: MBP-Paxillin NES (peptide)
chain: RELDELMASLSDFKFMAQ
notes: Paxillin, residues 264-281; also called Pax^NES; MBP-NES; not shown: MBP, N-terminal, kept
**Q.** Does B6 bind [1]?
**A.** binds

**Q.** How did the Kd [1] turn out when NSNELALKLAGLDANKT [PKI NES(Φ4A) mutant (MBP fusion)] was run?
**A.** 150 µM

B7: MBP-X11L2 NES (peptide)
chain: SSLQELVQQFEALPGDLV
notes: also called MBP-NES; not shown: MBP, N-terminal, kept
**Q.** Does B7 bind [1]?
**A.** binds

B8: FMRP NES peptide (crystallised) (peptide)
peptide: YLKEVDQLRLERLQI
notes: fragile X mental retardation protein (FMRP), residues 423-437; Extra N-terminal residues such as those printed for mDia2 (GGSY) and FMRP-1b (GGS) may be present; source: expressed and purified as described in Fung et al., 2015
**Q.** Does B8 bind [2]?
**A.** binds

B9: MBP-HDAC5 NES (peptide)
chain: EAETVSAMALLSVG
notes: Histone deacetylase 5 (HDAC5), residues 1082-1095; also called HDAC^NES; MBP-NES; not shown: MBP, N-terminal, kept
**Q.** Does B9 bind [1]?
**A.** binds

B10: HDAC5 NES peptide (crystallised) (peptide)
peptide: EAETVSAMALLSVG
notes: Histone deacetylase 5 (HDAC5), residues 1082-1095; Extra N-terminal residues such as those printed for mDia2 (GGSY) and FMRP-1b (GGS) may be present; also called HDAC^NES; source: expressed and purified as described in Fung et al., 2015
**Q.** Does B10 bind [2]?
**A.** binds

B11: DEAF1 peptide (crystallised, false positive NES) (peptide)
peptide: SWLYLEEMVNSLLNTAQQ
notes: Deformed Epidermal Autoregulatory Factor 1 homolog (DEAF1), residues 452-469; Extra N-terminal residues such as those printed for mDia2 (GGSY) and FMRP-1b (GGS) may be present; also called DEAF^pep; source: expressed and purified as described in Fung et al., 2015
**Q.** Does B11 bind [3]?
**A.** binds

B12: SMAD4 NES peptide (crystallised) (peptide)
peptide: YERVVSPGIDLSGLTLQ
notes: Mothers against decapentaplegic homolog 4 (SMAD4), residues 133-149; Extra N-terminal residues such as those printed for mDia2 (GGSY) and FMRP-1b (GGS) may be present; source: expressed and purified as described in Fung et al., 2015
**Q.** Does B12 bind [2]?
**A.** binds

B13: X11L2 NES peptide (crystallised) (peptide)
peptide: SSLQELVQQFEALPGDLV
notes: Extra N-terminal residues such as those printed for mDia2 (GGSY) and FMRP-1b (GGS) may be present; source: expressed and purified as described in Fung et al., 2015
**Q.** Does B13 bind [2]?
**A.** binds

B14: GST-CDC7 NES (peptide)
chain: QDLRKLCERLRGMDSSTP
notes: cell division cycle 7-related protein kinase (CDC7), residues 456-473; source: as described in Fung et al., 2015; not shown: GST, N-terminal, kept
**Q.** Does B14 bind [4]?
**A.** binds

B15: GST-Hxk2 peptide (false positive NES) (peptide)
chain: DVPKELMQQIENFEKIFTV
notes: Hexokinase-2 (Hxk2), residues 18-36; also called GST-NESs; source: as described in Fung et al., 2015; not shown: GST, N-terminal, kept
**Q.** Does B15 bind [5]?
**A.** binds

B16: GST-X11L2 NES (peptide)
chain: SSLQELVQQFEALPGDLV
notes: source: as described in Fung et al., 2015; not shown: GST, N-terminal, kept
**Q.** Does B16 bind [6]?
**A.** binds

**Q.** Does B16 bind [7]?
**A.** binds

**Q.** Does B16 bind [8]?
**A.** binds

B17: GST-DEAF1 peptide (false positive NES) (peptide)
chain: SWLYLEEMVNSLLNTAQQ
notes: Deformed Epidermal Autoregulatory Factor 1 homolog (DEAF1), residues 452-469; also called GST-NESs; source: as described in Fung et al., 2015; not shown: GST, N-terminal, kept
**Q.** Does B17 bind [5]?
**A.** binds

**Q.** Does B17 bind [9]?
**A.** binds

B18: mDia2 NES peptide (crystallised) (peptide)
peptide: GGSYSVPEVEALLARLRAL
notes: residues printed before the NES in the crystallised peptide; not of mDia2; mouse diaphanous homolog 3 (mDia2), residues 1179-1193; source: expressed and purified as described in Fung et al., 2015
**Q.** Does B18 bind [2]?
**A.** binds

B19: Paxillin NES peptide (crystallised) (peptide)
peptide: RELDELMASLSDFKFMAQ
notes: Paxillin, residues 264-281; Extra N-terminal residues such as those printed for mDia2 (GGSY) and FMRP-1b (GGS) may be present; also called Pax^NES; source: expressed and purified as described in Fung et al., 2015
**Q.** Does B19 bind [2]?
**A.** binds

B20: MBP-FMRP NES (peptide)
chain: YLKEVDQLRLERLQI
notes: fragile X mental retardation protein (FMRP), residues 423-437; also called MBP-NES; not shown: MBP, N-terminal, kept
**Q.** Does B20 bind [1]?
**A.** binds
